pEC50, pKd: −log10 of the molar value. Where two headings read alike, the source gives them in different places.
How the values were obtained:
[1] = target: SARS-Cov2 Spike Active Trimer SAT (R&D Systems; Catalog No. 10549-CV) (SARS-CoV2) (UniProt P0DTC2); assay: SPR (Carterra)
[2] = target: SARS-Cov2 Spike Active Trimer SAT (R&D Systems; Catalog No. 10549-CV) (SARS-CoV2) (UniProt P0DTC2)
[3] = target: SARS-Cov2 Spike Active Trimer SAT (R&D Systems; Catalog No. 10549-CV) (SARS-CoV2) (UniProt P0DTC2); assay: SPR (Biacore)
[4] = target: SARS-Cov2 Spike Active Trimer SAT (R&D Systems; Catalog No. 10549-CV) (SARS-CoV2) (UniProt P0DTC2); remark: listed apart in the source
[5] = target: SARS-CoV-2 Spike (S) protein with an inactivated furin site on HEK293-Spike cells (293-SARS2-S-dfur, (SARS-CoV-2) (UniProt P0DTC2))
[6] = target: SARS-Cov2 Spike Active Trimer SAT (R&D Systems; Catalog No. 10549-CV) (SARS-CoV2) (UniProt P0DTC2); assay: ELISA, serially diluted purified Nb-Fc on SAT antigen

human SAT Nb-Fc control VH-Ab-8 (HAb8-S) (Fc fusion)
pKd [1]: 7.43
Response [2]: 0.489
koff [2]: 0.00294 s⁻¹
kon [2]: 149000 M⁻¹ s⁻¹
pKd [3]: 8.24
pKd [4]: 7.70
GMFI [5]: 430
GMFI Ratio [5]: 21.1
pEC50 [6]: 10.74

Reference: patent US20240251767A1
